T1: ChroM1 DNA-binding domain recombinant protein (rP, residues 2333-2480) (Homo sapiens, UniProt Q3L8U1 SEQ:2333-2480)
T1 sequence: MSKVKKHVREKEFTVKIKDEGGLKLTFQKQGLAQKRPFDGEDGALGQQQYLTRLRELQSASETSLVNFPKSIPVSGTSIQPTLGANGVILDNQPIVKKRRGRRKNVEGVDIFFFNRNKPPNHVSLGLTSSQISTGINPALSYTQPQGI

B1: BMP4 distal promoter PCR fragment (145 bp) (dsDNA)
DNA 1: GCTAAAGGAGCACAATGCCTGATGCTGCAGGAGAAACATTAGGTAACTATTTAATGGAGTTTTAATTTTCTGTTATTATTTTTAATAATTAATTGTGATTTTGACTATTTGGAAGCTACAGGTATATTTTGTCCTCCTTTTGGGG
DNA 2: CCCCAAAAGGAGGACAAAATATACCTGTAGCTTCCAAATAGTCAAAATCACAATTAATTATTAAAAATAATAACAGAAAATTAAAACTCCATTAAATAGTTACCTAATGTTTCTCCTGCAGCATCAGGCATTGTGCTCCTTTAGC
B2: A/T-rich 32-mer oligonucleotide (dsDNA)
DNA 1: GATCCATATATATATATATATATATATATGCA
DNA 2: TGCATATATATATATATATATATATATGGATC

Tests used:
[1] = molecular target: T1, ChroM1 DNA-binding domain recombinant …; experiment: EMSA; binding reduced by distamycin A
[2] = molecular target: T1, ChroM1 DNA-binding domain recombinant …; experiment: EMSA; 1-3 ug rP; binding increases with protein; abolished by 100x cold oligo; 26 mM Hepes pH 7.9, 2 mM MgCl2, 40 mM KCl, RT; strandedness of probe not stated; settings: label: 32P
Method: Electrophoretic mobility shift assay (EMSA): EMSA was performed between recombinant protein (rP) containing the DNA binding domain (residues 2333-2480 from sequence of ChroM1) and ³²P-labeled 32-mer oligonucleotide containing 24 A·T nucleotides, […] (SEQ ID NO:14). 1-3 μg of rP and 100,000 cpm of ³²P-labeled oligonucleotides were used for the binding reaction in the presence or absence of 100 fold excess cold oligonucleotide. The reaction was carried out in 20 μl of binding buffer (26 mM Hepes, pH 7.9, 2 mM MgCl₂, 40 mM KC1, 1 mM dithiothreitol and 0.25% BSA). The samples were incubated for 15 min at room temperature prior to loading in 5% native polyacrylamide gel in 0.25 Tris borate-EDTA (TBE). The gel was run for 40 min at RT and in TBE buffer. The gels were then dried and autoradiographed.

Binder | binding result [1] | binding result [2]
B1 | binds | 
B2 |  | binds

From patent US20050250717, “Chromatin remodeling protein as a marker expressed by stromal progenitor cells” (Ramot AT Tel Aviv University Ltd., published 2005)
